Experimental findings from patent publication US20240101716A1 are described below.

The assay has as its target PD-L1 (blocking assay of Example 11) (UniProt Q9NZQ7).

Chain of PD-L1 (blocking assay of Example 11) (Q9NZQ7 19-239 limits assumed): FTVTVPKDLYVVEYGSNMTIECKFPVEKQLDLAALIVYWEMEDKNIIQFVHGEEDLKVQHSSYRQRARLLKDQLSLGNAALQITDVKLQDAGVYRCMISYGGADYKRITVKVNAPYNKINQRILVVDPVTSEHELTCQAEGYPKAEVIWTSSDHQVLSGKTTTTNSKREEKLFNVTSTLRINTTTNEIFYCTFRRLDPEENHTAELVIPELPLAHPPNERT

Human IgG1 (antibody) showed an EC50 printed for a flat curve: luminescence stays at the baseline of about 50000 RLU up to Log10 about 2.2 nM (no blockade), PD-1/PD-L1 Blockade Assay of 39.5 pM.

Tecentriq (antibody) displayed an EC50, luminescence (RLU) in the PD-1/PD-L1 Blockade Assay of 0.318 nM.
